Measurements published in PMC4250405.

Target: taxol-stabilized microtubules (UniProt Q6B856)
Assay: optical trap bead assay

MT binding time of diffusive beads: 54.3 s
Substance: p150^Glued fragment p150 1-555 (from UniProt P28023 1-555) (domain or fragment)
